Measurements from US20150344570A1 (published 2015).

Experiments:
FcγRIIIa F = FcγRIIIa F (human, UniProt P08637 17-208); experiment: SPR (Biacore), KD
FcγRIIIa V = FcγRIIIa V (human, UniProt P08637 17-208); experiment: SPR (Biacore), KD
Chain of FcγRIIIa V (P08637 17-208): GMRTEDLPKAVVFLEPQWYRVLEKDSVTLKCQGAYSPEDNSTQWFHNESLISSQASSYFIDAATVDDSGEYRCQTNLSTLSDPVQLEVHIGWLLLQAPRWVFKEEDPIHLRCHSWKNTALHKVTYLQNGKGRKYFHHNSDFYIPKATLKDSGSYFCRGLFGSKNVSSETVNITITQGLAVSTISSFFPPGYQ

Chain of FcγRIIIa F (P08637 17-208): as above

fold binding activity against H240-Kn033/H240-Hl033/L73-k0 (FcγRIIIa F) | fold binding activity against H240-Kn033/H240-Hl033/L73-k0 (FcγRIIIa V) | Binder
≥ 100 fold | ≥ 100 fold | H240-Kn201/H240-Hl076/L73-k0 (antibody, human IgG1, kappa) heavy 1: QDQLVQSGAEVKKPGASVKVSCKASGFNIKDTYIQWVRQAPGQGLEWMGRIDPLRKQTKYREKFEGRVTITADTSTNTAYMELSSLRSEDTAVYYCVRSGREFDYWGQGTLVTVSSASTKGPSVFPLAPSSKSTSGGTAALGCLVKDYFPEPVTVSWNSGALTSGVHTFPAVLQSSGLYSLSSVVTVPSSSLGTQTYICNVNHKPSNTKVDKKVEPKSCDKTHTCPPCPAPEFQWGPMVFLFPPKPKDTLMISRTPEVTCVVVDVSDEEPEVKFNWYVDGVEVHNAKTKPREEQYNATYRVVSVLTVLHQDWLNGKEYKCKVSNKALPAPIEKTISKAKGQPREPQVCTLPPSRDELTKNQVSLWCLVKGFYPSDIAVEWESNGQPENNYKTTPPVLDSDGSFFLYSKLTVDKSRWQQGNVFSCSVMHEALHNHYTQKSLSLSP heavy 2: QDQLVQSGAEVKKPGASVKVSCKASGFNIKDTYIQWVRQAPGQGLEWMGRIDPLRKQTKYREKFEGRVTITADTSTNTAYMELSSLRSEDTAVYYCVRSGREFDYWGQGTLVTVSSASTKGPSVFPLAPSSKSTSGGTAALGCLVKDYFPEPVTVSWNSGALTSGVHTFPAVLQSSGLYSLSSVVTVPSSSLGTQTYICNVNHKPSNTKVDKKVEPKSCDKTHTCPPCPAPELLGGPSVFLFPPKPKDTLMISRTPEVTCVVVDVSHEEPEVKFNWYVDGVEVHNAKTKPREEQYNSTYRVVSVLTVLHQDWLNGKEYKCKVSNDALPMPIEETISKAKGQPREPQVYTLPPSRCELTKNQVSLSCAVKGFYPSDIAVEWESNGQPENNYKTTPPVLDSDGSFFLVSKLTVDKSRWQQGNVFSCSVMHEALHNHYTQKSLSLSP light: DIQMTQSPSSLSASVGDRVTITCRASQDIHKYIAWYQQKPGQAPRLLIQYTSTLQPGVPSRFSGSGSGTDYTFTISSLQPEDIATYYCLQYEQLRTFGGGTKVEIKRTVAAPSVFIFPPSDEQLKSGTASVVCLLNNFYPREAKVQWKVDNALQSGNSQESVTEQDSKDSTYSLSSTLTLSKADYEKHKVYACEVTHQGLSSPVTKSFNRGEC
≥ 100 fold | ≥ 100 fold | H240-Kn202/H240-Hl076/L73-k0 (antibody, human IgG1, kappa) heavy 1: QDQLVQSGAEVKKPGASVKVSCKASGFNIKDTYIQWVRQAPGQGLEWMGRIDPLRKQTKYREKFEGRVTITADTSTNTAYMELSSLRSEDTAVYYCVRSGREFDYWGQGTLVTVSSASTKGPSVFPLAPSSKSTSGGTAALGCLVKDYFPEPVTVSWNSGALTSGVHTFPAVLQSSGLYSLSSVVTVPSSSLGTQTYICNVNHKPSNTKVDKKVEPKSCDKTHTCPPCPAPEEQWGPMVFLFPPKPKDTLMISRTPEVTCVVVDVSDEEPEVKFNWYVDGVEVHNAKTKPREEQYNATYRVVSVLTVLHQDWLNGKEYKCKVSNKALPAPIEKTISKAKGQPREPQVCTLPPSRDELTKNQVSLWCLVKGFYPSDIAVEWESNGQPENNYKTTPPVLDSDGSFFLYSKLTVDKSRWQQGNVFSCSVMHEALHNHYTQKSLSLSP heavy 2: QDQLVQSGAEVKKPGASVKVSCKASGFNIKDTYIQWVRQAPGQGLEWMGRIDPLRKQTKYREKFEGRVTITADTSTNTAYMELSSLRSEDTAVYYCVRSGREFDYWGQGTLVTVSSASTKGPSVFPLAPSSKSTSGGTAALGCLVKDYFPEPVTVSWNSGALTSGVHTFPAVLQSSGLYSLSSVVTVPSSSLGTQTYICNVNHKPSNTKVDKKVEPKSCDKTHTCPPCPAPELLGGPSVFLFPPKPKDTLMISRTPEVTCVVVDVSHEEPEVKFNWYVDGVEVHNAKTKPREEQYNSTYRVVSVLTVLHQDWLNGKEYKCKVSNDALPMPIEETISKAKGQPREPQVYTLPPSRCELTKNQVSLSCAVKGFYPSDIAVEWESNGQPENNYKTTPPVLDSDGSFFLVSKLTVDKSRWQQGNVFSCSVMHEALHNHYTQKSLSLSP light: DIQMTQSPSSLSASVGDRVTITCRASQDIHKYIAWYQQKPGQAPRLLIQYTSTLQPGVPSRFSGSGSGTDYTFTISSLQPEDIATYYCLQYEQLRTFGGGTKVEIKRTVAAPSVFIFPPSDEQLKSGTASVVCLLNNFYPREAKVQWKVDNALQSGNSQESVTEQDSKDSTYSLSSTLTLSKADYEKHKVYACEVTHQGLSSPVTKSFNRGEC
